T1: human CD27 fused to human Fc domain (human, UniProt P26842 21-192, limits assumed)
T1 construct: bought reagent; also called CD27-Fc; CD27Fc
T1 sequence (looked up): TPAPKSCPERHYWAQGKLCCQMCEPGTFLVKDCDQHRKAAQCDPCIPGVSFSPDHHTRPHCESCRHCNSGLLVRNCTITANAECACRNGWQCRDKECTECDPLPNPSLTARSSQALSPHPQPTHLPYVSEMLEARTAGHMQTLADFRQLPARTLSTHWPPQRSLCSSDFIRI

T2: CD70 on cells (CHO-CD70, JVM-3, U266, Raji, THP-1, T cells) (human, UniProt P32970 1-193)
T2 construct: whole, on cells; also called cell-surface CD70
T2 sequence (looked up): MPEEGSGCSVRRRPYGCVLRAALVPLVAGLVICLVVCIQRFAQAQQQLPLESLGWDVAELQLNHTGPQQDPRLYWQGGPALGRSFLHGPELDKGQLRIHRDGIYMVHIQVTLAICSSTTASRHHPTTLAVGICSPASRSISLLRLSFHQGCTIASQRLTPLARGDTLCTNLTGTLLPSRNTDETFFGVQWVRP

B1: human CD70, recombinant, N-terminally biotinylated (residues 39-193) (ligand, UniProt P32970 39-193, looked up)
chain: QRFAQAQQQLPLESLGWDVAELQLNHTGPQQDPRLYWQGGPALGRSFLHGPELDKGQLRIHRDGIYMVHIQVTLAICSSTTASRHHPTTLAVGICSPASRSISLLRLSFHQGCTIASQRLTPLARGDTLCTNLTGTLLPSRNTDETFFGVQWVRP
modifications: N-terminal biotin
notes: range 39-193; the same entry is used there; also called biotinylated human CD70; CD70 biotin

Columns and labels:
[1] = target: T1, human CD27 fused to human Fc domain; experiment: BLI, biotinylated CD70 on streptavidin sensors, 400 nM analyte
Method: (§1) Bio-layer interferometry was used to measure the binding affinity of CD70 to CD70-targeted antibodies 41D12, R3P3H12, R3P5A1, R3aP3E8, and R3aP9D10, and human CD27 fused to human Fc domain (CD27-Fc; Acro Biosystems cat. CD7-h5254). […] Following CD70 immobilization, biosensors were immersed in Octet Buffer to remove unbound, biotinylated CD70 and to establish a flat baseline sensor signal. CD70-loaded Biosensors were then transferred to Octet buffer containing 400 nM of CD27-Fc or αCD70 antibody and association was monitored for 5 minutes at 30° C. whilst agitating at 1,000 RPM. An scFv fragment derived from humanized llama αCD70 antibody 41D12 and fused to human Fc (41D12-Fc) served as a positive control for CD70 binding and an αLysozyme single-domain camelid antibody (clone D2-L19) was used as a negative control. CD27-Fc or αCD70 antibody dissociation was initiated by transferring sensors to Octet buffer and monitored for 5 minutes. Data were analyzed using ForteBio Data Analysis Suite 9.0. The observed association (kₒₙ) and dissociation (koff) rates for the binding of single-domain antibodies to CD70 were determined using a 1:1 curve fitting model to obtain, in all cases, R²≥0.95. Values of the equilibrium dissociation constant for binding to CD70, KD, were determined from the ratio of koff and kₒₙ.

[2] = target: T2, CD70 on cells (CHO-CD70, JVM-3, U266, …); experiment: cell ELISA, about 500 nM VHH-His, anti-His-HRP
Method: A cell binding ELISA was carried out to determine whether the anti-CD70 VHHs could recognize the antigen on cells. ˜500 nM each VHH-his was diluted in blocking buffer (PBS+0.01% Tween20+2% non-fat dry milk) and added to wells containing 100,000-200,000 pre-blocked CHO-CD70 cells (high CD70 expression), JVM3 cells (medium-low CD70 expression), wild type CHO cells (negative control), HL60 cells (negative control). The plate was incubated for 1 hour at room temperature with agitation. After incubation cells were washed 3 times by spinning down and dumping of the supernatant followed by addition of PBST. Subsequently, secondary antibody was applied (anti-His-HRP) and the mixture incubated for 30 minutes. After 3 more washes TMB substrate was applied to the plates and the reaction was allowed to proceed for 1-5 minutes before 1M HCl was applied as a stop solution. Immediately following application of the stop solution the absorbance at 450 nm (OD₄₅₀) of each well was measured on a spectrophotometer.

[3] = target: T2, CD70 on cells (CHO-CD70, JVM-3, U266, …); experiment: binding to CD70-expressing CHO cells with and without CD27-Fc
Summary of the method: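 Anti-CD70 antibodies and CD27-Fc were applied to CHO cells with CD70 attached to the cell surface, in four set-ups. Each was applied alone; antibody was premixed with CD27-Fc; or cells were first coated with CD27-Fc or with antibody, washed, and then given the mixture. The binding signal was then measured in each set-up.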

[4] = target: B1; experiment: BLI, biotinylated CD70 on streptavidin sensors, 400 nM analyte
Method: as §1

| binding result [1] | binding result [2] | binding result [3] | binding result [4] | Binder |
| --- | --- | --- | --- | --- |
| binds | – | – | – | B1 |
| – | binds | – | – | R3P2G8 VHH (VHH, tested as VHH-His) VHH: QVQLQESGGGLVQTGGSLRLSCTASGSIFDIARGNWYRQAPGKQRELVAIITSGGATNYADSVAGRFTISRDDAKNTVYLQMNGLKPEDTAVYFCNMESLSYRHYWGQGTQVTVSS |
| – | – | binds | binds | R3aP9D10 VHH (VHH, tested as VHH-His) VHH: QVQLQESGGGLVQAGGSLRLSCAAPGFTFDAYAIGWFRQAPGKEREGVICLSPSDGSTYYADSVKGRFTISSDNAKNTVYLQMNSLKPEDTAVYYCATPSWCSLKADFGSWGQGTQVTVSS |
| – | – | binds | binds | R3P5A1 VHH (VHH, tested as VHH-His) VHH: QVQLQESGGGLVQPGGSLRLSCTASGSIFSATRMEWYRQAPGKQRELVAIVTSGGRTNYADSVNGRFTISRDNAKNTLYLQMNNLKPEDTAVYYCKFERYDYVNYWGRGTQVTVSS |

Source: patent US20240252641A1 (TCR2 THERAPEUTICS, published 2024)
